In PMC4389238, “Non-canonical active site architecture of the radical SAM thiamin pyrimidine synthase” (Nature Communications, 2015):

B1: Arabidopsis thaliana ThiC, ΔN71-AtThiC (residues 1-71 removed) (enzyme)
chain: not shown
notes: ThiC (thiamin pyrimidine synthase, HMP-P synthase), Arabidopsis thaliana; full-length protein has 644 residues; Holds a [4Fe-4S] cluster and an additional metal (Fe or Zn); The final 55 residues are not visible in the electron density.}; also called thiamin pyrimidine synthase; not shown: His6, N-terminal, cleaved
B2: Caulobacter crescentus ThiC, full length (enzyme)
chain: not shown
notes: ThiC (thiamin pyrimidine synthase), Caulobacter crescentus; Holds a [4Fe-4S] cluster; also called CcThiC; holo CcThiC; not shown: His6, N-terminal, cleaved

How the values were obtained:
[1] = biological target: the molecule itself; experiment: crystal structure; AtThiC with [4Fe-4S] cluster co-crystallised anaerobically with combinations of IRN, AIR, SAH, 5'-dAdo, L-Met, Zn or Fe; hanging drop, room temperature; space groups P3(2)21 and C2; 1.25-1.84 Å
[2] = biological target: the molecule itself; experiment: crystal structure; holo CcThiC with [4Fe-4S] cluster, no substrates; anaerobic, 140 mM HEPES pH 9.2, 7.5% PEG8000; space group C2; 2.93 Å

Row | Protein | binding result [1] | binding result [2]
1 | B1 | binds | –
2 | B2 | – | binds
